Results reported in patent US20140303084.
Changes are numbered by the printed parent chain.

Key:
KLTCLASYCFLF = test system: T1, KLTCLASYCFLF
T1 sequence: KLTCLASYCFLF

[1] = test system: T2, SKQGRPISPDrRAAGKLTCLASYCWLF
T2 sequence: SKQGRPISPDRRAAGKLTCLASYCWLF

Dpr-LTCLASYCWLF = test system: T3, Dpr-LTCLASYCWLF
T3 sequence: XLTCLASYCWLF

[2] = test system: T4, WRAGLDESQR DRAPG KLTCLASYCWLFWTGIA
T4 sequence: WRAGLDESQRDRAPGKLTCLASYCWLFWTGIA

KRYVYRQMCLVSACWLLQLGYA = test system: T5, KRYVYRQMCLVSACWLLQLGYA
T5 sequence: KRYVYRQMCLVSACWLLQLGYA

compound C = test system: T6, compound C
T6 sequence: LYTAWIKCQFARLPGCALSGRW

[3] = test system: T7, RRAPGK-MeLeu-TCLASYCWLFWTGIA
T7 sequence: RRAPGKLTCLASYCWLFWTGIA

KLTCLASYCWLF-COOH = test system: T8, KLTCLASYCWLF-COOH
T8 sequence: KLTCLASYCWLF

[4] = test system: T9, RRAPGKLT-Orn-LASY-Asp-WLFWTGIA-COOH
T9 sequence: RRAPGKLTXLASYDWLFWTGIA

[5] = test system: T10, RRAPGCLTALASYAWLCWTGIA-COOH
T10 sequence: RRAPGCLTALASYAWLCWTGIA

KLTCLASQCWLF = test system: T11, KLTCLASQCWLF
T11 sequence: KLTCLASQCWLF

[6] = test system: T12, RRAPGKLTCLASYCWLF WTTYA SYATKPADTT
T12 sequence: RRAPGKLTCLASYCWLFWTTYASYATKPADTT

KLT-Glu-LASY-Lys-WLF = test system: T13, KLT-Glu-LASY-Lys-WLF
T13 sequence: KLTELASYKWLF

KGAYQKLTCLASYCLLFLLTAQ = test system: T14, KGAYQKLTCLASYCLLFLLTAQ
T14 sequence: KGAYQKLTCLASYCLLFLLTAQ

LTCLASYCWLF = test system: T15, LTCLASYCWLF
T15 sequence: LTCLASYCWLF

KLTCLVSYCWLF = test system: T16, KLTCLVSYCWLF
T16 sequence: KLTCLVSYCWLF

[7] = test system: T17, RRAP-Sar-KLTCLASYCWLFWTGIA
T17 sequence: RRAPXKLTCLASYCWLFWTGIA

[8] = test system: T18, RRAPGKLTCK(PEG2-Biotin)ASYCWLFWTGIA
T18 sequence: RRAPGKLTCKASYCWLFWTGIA

EGRRDKLTCLASYCWLVGHGQH = test system: T19, EGRRDKLTCLASYCWLVGHGQH
T19 sequence: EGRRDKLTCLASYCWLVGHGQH

RRRKLTCLASYCWLFRRR = test system: T20, RRRKLTCLASYCWLFRRR
T20 sequence: RRRKLTCLASYCWLFRRR

LRQRLAKTCVASYCWLFSLVAS = test system: T21, LRQRLAKTCVASYCWLFSLVAS
T21 sequence: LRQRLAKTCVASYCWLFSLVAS

[9] = test system: T22, rRAPGKLTCLASYCWLFWTGIA-PEG4-C(N-PEG5k maleimide)
T22 sequence: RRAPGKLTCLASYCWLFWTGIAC

KLTCLAsYCWLF [10] = test system: T23, KLTCLAsYCWLF
T23 sequence: KLTCLASYCWLF

QQRQIKMSCLASYCWLFGSIPW = test system: T24, QQRQIKMSCLASYCWLFGSIPW
T24 sequence: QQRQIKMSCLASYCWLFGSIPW

[11] = test system: T25, SRSRTVSPGSRSASGKSTCLASYCWLFWTGIA
T25 sequence: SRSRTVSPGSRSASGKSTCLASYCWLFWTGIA

RGRSAKLTCLASYCWLFFGVIL = test system: T26, RGRSAKLTCLASYCWLFFGVIL
T26 sequence: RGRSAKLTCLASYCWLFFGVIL

RRAPGKLTCLASYCWlFWTGIA [12] = test system: T27, RRAPGKLTCLASYCWlFWTGIA
T27 sequence: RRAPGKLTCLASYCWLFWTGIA

ERYRLDMTCMASQCWQFPPAAG = test system: T28, ERYRLDMTCMASQCWQFPPAAG
T28 sequence: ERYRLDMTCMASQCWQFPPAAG

RSQGRKLTCLASYCWLFLVVHR = test system: T29, RSQGRKLTCLASYCWLFLVVHR
T29 sequence: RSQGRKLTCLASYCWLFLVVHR

VSGTGKLTCLASYCWLFQLGSF = test system: T30, VSGTGKLTCLASYCWLFQLGSF
T30 sequence: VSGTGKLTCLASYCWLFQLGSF

KLTCRASYCQLF = test system: T31, KLTCRASYCQLF
T31 sequence: KLTCRASYCQLF

[13] = test system: T32, RRAPGKLTCLASYCWLF WTGFA FRVGLASSLY
T32 sequence: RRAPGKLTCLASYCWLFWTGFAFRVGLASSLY

LTWREKLACLASYCWLFLWGAP = test system: T33, LTWREKLACLASYCWLFLWGAP
T33 sequence: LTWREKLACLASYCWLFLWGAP

[14] = test system: T34, PRISTVGPGSRSASGKLTCLASYCWLFWTGIA
T34 sequence: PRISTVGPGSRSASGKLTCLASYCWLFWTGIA

[15] = test system: T35, PRIRTVGPGSRSASGKLTCLASYCWLFLTGIA
T35 sequence: T34 sequence with S4R, W28L

[16] = test system: T36, RRAPGKLT-Asp-LASY-Dap-WLFWTGIA-CONH2
T36 sequence: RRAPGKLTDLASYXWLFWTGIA

RRAAGKLQCLASYCWLFWTGIA = test system: T37, RRAAGKLQCLASYCWLFWTGIA
T37 sequence: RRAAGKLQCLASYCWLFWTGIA

[17] = test system: T38, VGSGDERALP SRASG KLTCLASYCWLFWTGIA
T38 sequence: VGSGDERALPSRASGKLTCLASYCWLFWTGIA

KLTCLASYCWL = test system: T39, KLTCLASYCWL
T39 sequence: KLTCLASYCWL

KLTCLKSYCWLF = test system: T40, KLTCLKSYCWLF
T40 sequence: KLTCLKSYCWLF

K-MeLeu-TCLASYCWLF = test system: T41, K-MeLeu-TCLASYCWLF
T41 sequence: KLTCLASYCWLF

[18] = test system: T42, AKQGRPISPDrRAAGKLTCLASYCWLFWTGIA
T42 sequence: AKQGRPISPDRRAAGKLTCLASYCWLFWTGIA

[19] = test system: T43, RRAPGKLTCLASYACLFWTGIA-CONH2
T43 sequence: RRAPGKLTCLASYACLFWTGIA

[20] = test system: T44, KLTCLASYCWLF-(PEG)4-CONH2
T44 sequence: KLTCLASYCWLF

RRAPGKLTCLASYCwLFWTGIA [21] = test system: T45, RRAPGKLTCLASYCwLFWTGIA
T45 sequence: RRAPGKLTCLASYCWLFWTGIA

[22] = test system: T46, RRAPGKLTCLASYCWLFWTGIA-COOH
T46 sequence: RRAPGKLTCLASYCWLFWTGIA

[23] = test system: T47, RRAPGKLTCLASYCWLFWTGI-MeAla
T47 sequence: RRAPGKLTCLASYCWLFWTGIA

KLTcLASYCWLF [24] = test system: T48, KLTcLASYCWLF
T48 sequence: KLTCLASYCWLF

SGRGGKLTCQASFCQLFGNGLS = test system: T49, SGRGGKLTCQASFCQLFGNGLS
T49 sequence: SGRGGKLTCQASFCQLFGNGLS

compound 21 = test system: T50, compound 21
T50 sequence: T34 sequence with S4R

rRAAGKLTCLASYCWLFATGIA = test system: T51, rRAAGKLTCLASYCWLFATGIA
T51 sequence: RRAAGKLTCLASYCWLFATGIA

HMQWGKLPCLASYCWLFWYGIG = test system: T52, HMQWGKLPCLASYCWLFWYGIG
T52 sequence: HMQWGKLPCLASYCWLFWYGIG

[25] = test system: T53, rRAPGKLTCLASYCWLFWTGIA-COOH
T53 sequence: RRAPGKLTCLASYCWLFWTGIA

human Factor IXa
99 nM: KM (nM) of hFIXa for FX (compound C)
> 3: Vmax, FXa generation assay (KLTCLASYCFLF) | Vmax, FXa generation assay [1] | Vmax, FXa generation assay [11] | Vmax, FXa generation assay [13] | Vmax, FXa generation assay [14] | Vmax, FXa generation assay [15] | Vmax, FXa generation assay (KLTCLASYCWL) | Vmax, FXa generation assay [18] | Vmax, FXa generation assay [19] | Vmax, FXa generation assay with hFIXa (compound 21)
> 0.6: Vmax, FXa generation assay with hFIXa (compound C)
0.00044 min⁻¹: kcat (min^-1) of hFIXa for FX, scrambled control at 10.0 µM (compound C)
> 2: Vmax, FXa generation assay (Dpr-LTCLASYCWLF) | Vmax, FXa generation assay [4] | Vmax, FXa generation assay (KLTCLASQCWLF) | Vmax, FXa generation assay [6] | Vmax, FXa generation assay (KLTCLVSYCWLF) | Vmax, FXa generation assay [7] | Vmax, FXa generation assay [9] | Vmax, FXa generation assay (KLTCLAsYCWLF [10]) | Vmax, FXa generation assay (RGRSAKLTCLASYCWLFFGVIL) | Vmax, FXa generation assay (KLTCRASYCQLF) | Vmax, FXa generation assay [16] | Vmax, FXa generation assay (RRAAGKLQCLASYCWLFWTGIA) | Vmax, FXa generation assay [17] | Vmax, FXa generation assay (K-MeLeu-TCLASYCWLF) | Vmax, FXa generation assay (RRAPGKLTCLASYCwLFWTGIA [21]) | Vmax, FXa generation assay [22] | Vmax, FXa generation assay (KLTcLASYCWLF [24]) | Vmax, FXa generation assay (HMQWGKLPCLASYCWLFWYGIG) | Vmax, FXa generation assay [25]
> 1.5: Vmax, FXa generation assay (LRQRLAKTCVASYCWLFSLVAS)
> 0.3: Vmax, FXa generation assay (EGRRDKLTCLASYCWLVGHGQH)
> 0.1: Vmax, FXa generation assay [5]
(++): Vmax, FXa generation assay; (++) means 1-2 [2] | Vmax, FXa generation assay; (++) means 1-2 (KRYVYRQMCLVSACWLLQLGYA) | Vmax, FXa generation assay; (++) means 1-2 [3] | Vmax, FXa generation assay; (++) means 1-2 (KLTCLASYCWLF-COOH) | Vmax, FXa generation assay; (++) means 1-2 (KLT-Glu-LASY-Lys-WLF) | Vmax, FXa generation assay; (++) means 1-2 (KGAYQKLTCLASYCLLFLLTAQ) | Vmax, FXa generation assay; (++) means 1-2 (LTCLASYCWLF) | Vmax, FXa generation assay; (++) means 1-2 [8] | Vmax, FXa generation assay; (++) means 1-2 (RRRKLTCLASYCWLFRRR) | Vmax, FXa generation assay; (++) means 1-2 (QQRQIKMSCLASYCWLFGSIPW) | Vmax, FXa generation assay; (++) means 1-2 (RRAPGKLTCLASYCWlFWTGIA [12]) | Vmax, FXa generation assay; (++) means 1-2 (ERYRLDMTCMASQCWQFPPAAG) | Vmax, FXa generation assay; (++) means 1-2 (RSQGRKLTCLASYCWLFLVVHR) | Vmax, FXa generation assay; (++) means 1-2 (VSGTGKLTCLASYCWLFQLGSF) | Vmax, FXa generation assay; (++) means 1-2 (LTWREKLACLASYCWLFLWGAP) | Vmax, FXa generation assay; (++) means 1-2 (KLTCLKSYCWLF) | Vmax, FXa generation assay; (++) means 1-2 [20] | Vmax, FXa generation assay; (++) means 1-2 [23] | Vmax, FXa generation assay; (++) means 1-2 (SGRGGKLTCQASFCQLFGNGLS) | Vmax, FXa generation assay; (++) means 1-2 (rRAAGKLTCLASYCWLFATGIA)
